Laboratory results: doi:10.1101/2024.11.01.621267

Target: recombinant full-length RACK1 protein (ITC) (human) (UniProt P63244)
Experiment: ITC; LARP4 peptide (400 μM; 300 μM for 600–625) injected into RACK1 (40 μM; 30 μM) in the cell; iTC200; 298K; 20 mM HEPES, 300 mM NaCl, 10% glycerol, 1 mM DTT pH 7.5; triplicate

Kd: 2100 nM
dH: -8.6 kcal/mol
stoichiometry N: 0.9
Substance: HsLARP4 peptide 612–637 (from UniProt Q71RC2-1 612-637)
